Results taken from patent publication US20060293506A1 (Amgen, published 2006).

Biological target: p35 form of the 30664188.0.99 gene product (active fragment of PDGFD) (human, UniProt Q9GZP0 250-370)
Assay: cell-based or functional assay

B1: CURA2 MAb 1.29 (antibody, IgG2, V domains shown)
VH: EVQLVQSGAEVKKPGESLKISCKGSGYSFTSYWIGWVRQMPGKGLEWMGIIYPGDSDTRYSPSFQGQATISADKSISTAYLQWSSLKASDTAMYYCARHVDVGATIGGYYYYYHGMDVWGQGTTVTVSS
VL: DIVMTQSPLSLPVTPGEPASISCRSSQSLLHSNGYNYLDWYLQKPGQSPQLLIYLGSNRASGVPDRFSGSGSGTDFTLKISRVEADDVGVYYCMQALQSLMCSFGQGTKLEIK
  IC50 (ng/mL), BrdU incorporation assay on NIH 3T3 cells: 150 ng/mL

B2: CURA2 MAb 1.46 (antibody, IgG2, V domains shown)
VH: QVQLVQSGAEVKKPGASVKVSCKASGYSFTSYDINWVRQATGQGLEWMGWMNPNNGNTGYAQKFQGRVTMTRNTSISTAYMELSSLRSEDTAVYYCARDIVVVVTATDYYYGMDVWGQGTTVTVSS
VL: DIQMTQSPSSLSASVGDRVTITCRASQGIRNDLGWYQQKPGKAPKRLIFAASSLPSGVPSRFSGSGSGTEFTLTISSLQPEDFATYYCLQHSGYPPTFGQGTKVEIK
  IC50 (ng/mL), BrdU incorporation assay on NIH 3T3 cells: 500 ng/mL

B3: CURA2 MAb 1.19 (antibody, IgG2, V domains shown)
VH: QVQLVQSGAEVKKPGASVKVSCKASGYTFTSYDINWVRQATGQGLEWMGWMNPNSGNTGYAQKFQGRVTMTRNTSISTAYMELSSLRSEDTAVYYCARDVMITFGGVIVHYGMDVWGQGTTVTVSS
VL: DIQMTQSPSSLSASVGDRVTITCRASQGIRNDLGWYQQKPGKAPKRLIYAASSLQSGVPSRFSGSGSGTDFTLTISSLQPEDFATYYCLQHNSDPCSFGQGTKLEIR
  IC50 (ng/mL), BrdU incorporation assay on NIH 3T3 cells: 75 ng/mL

B4: CURA2 MAb 1.18 (antibody, IgG2, V domains shown)
VH: QVQLVQSGAEVKKPGASVKVSCKASGYTFTSYDINWVRQATGQGLEWMGWMNPNSGNTGYAQKFQGRVTMTRNTSISTAYMELSSLRSEDTAVYYCAREGIAVAGTYYYYYGMDVWGQGTTVTVSS
VL: DIQMTQSPSSLSASVGDRVTITCRASQGIRNDLGWYQQKPGKAPKRLIYAASSLQSGVPSRFSGSGSGTEFTLTISSLQPEDFATYFCLQHNSYPFTFGPGTKVDIK
  IC50 (ng/mL), BrdU incorporation assay on NIH 3T3 cells: > 1000 ng/mL

B5: CURA2 MAb 6.4 (antibody, IgG2, V domains shown)
VH: QVQLVQSGAEVKKPGASVKVSCKASGYTFTSYDINWVRQATGQGLEWMGWINPNSGNTDYAQKFQGRVTMTRDTSISTAYMELSSLRSEDTAIYYCVRGFGYSYNYDYYYGMDVWGQGTTVTVSS
VL: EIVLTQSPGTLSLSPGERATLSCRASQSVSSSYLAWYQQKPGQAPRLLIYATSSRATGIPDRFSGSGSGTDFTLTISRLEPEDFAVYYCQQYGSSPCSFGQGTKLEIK
  IC50 (ng/mL), BrdU incorporation assay on NIH 3T3 cells: 75 ng/mL

B6: CURA2 MAb 1.45 (antibody, IgG2, V domains shown)
VH: QVQLVQSGAEVKKPGASVKVSCKASGYTFTSYDINWVRQATGQGLEWMGWMNPNSGNTGYAQKFQGRVTMTRNTSISTAYMELSSLRSEDTAVYYCARGSGYSYGYDYYYGMDVWGQGTTVTVSS
VL: DIQMTQSPSSLSASVGDRVTINCRASQGISNDLAWYQQKPGKVPKLLIYAASTLQLGVPSRFSGSGSGTDFTLTISSLQPEDVATYYCQKYNSAPFTFGPGTKVDIK
  IC50 (ng/mL), BrdU incorporation assay on NIH 3T3 cells: 750 ng/mL

B7: CURA2 MAb 1.51 (antibody, IgG2, V domains shown)
VH: EVQLVQSGAEVKKPGESLKISCKGSGYSFTSYWIGWVRQMPGKGLEWMGIIYPGDSDAKYSPSFQGQVTISADKSISTAYLQWSSLKASDTAMYYCARHYDYVWRNYRYTGWFDPWGQGTLVTVSS
VL: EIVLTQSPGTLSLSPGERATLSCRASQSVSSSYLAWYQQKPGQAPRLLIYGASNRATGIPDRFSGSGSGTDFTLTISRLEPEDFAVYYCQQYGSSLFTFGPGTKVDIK
  IC50 (ng/mL), BrdU incorporation assay on NIH 3T3 cells: 1000 ng/mL
